In article PMC5071727, “A Structure‐Guided Switch in the Regioselectivity of a Tryptophan Halogenase” (Chembiochem, 2016):

Legend:
Experiment in all cases: steady-state chlorination kinetics
Format in all cases: biochemical, Streptomyces toxytricini
Conditions in all cases: wild type; kinetic assay conditions not given
[1] = substrate: Nc1ccccc1C(=O)C[C@H](N)C(=O)O
Excerpt: (§1) steady-state chlorination kinetics on SttH

[2] = substrate: NC(=O)c1ccccc1N
Excerpt: as §1

[3] = substrate: N[C@@H](Cc1c[nH]c2ccccc12)C(=O)O
Excerpt: as §1

B1: SttH (Streptomyces toxytricini) (protein)
chain: MNTRNPDKVVIVGGGTAGWMTASYLKKAFGERVSVTLVESGTIGTVGVGEATFSDIRHFFEFLDLREEEWMPACNATYKLAVRFQDWQRPGHHFYHPFEQMRSVDGFPLTDWWLQNGPTDRFDRDCFVMASLCDAGRSPRYLNGSLLQQEFDERAEEPAGLTMSEHQGKTQFPYAYHFEAALLAEFLSGYSKDRGVKHVVDEVLEVKLDDRGWISHVVTKEHGDIGGDLFVDCTGFRGVLLNQALGVPFVSYQDTLPNDSAVALQVPLDMEARGIPPYTRATAKEAGWIWTIPLIGRIGTGYVYAKDYCSPEEAERTLREFVGPEAADVEANHIRMRIGRSEQSWKNNCVAIGLSSGFVEPLESTGIFFIHHAIEQLVKHFPAGDWHPQLRAGYNSAVANVMDGVREFLVLHYLGAARNDTRYWKDTKTRAVPDALAERIERWKVQLPDSENVFPYYHGLPPYSYMAILLGTGAIGLRPSPALALADPAAAEKEFTAIRDRARFLVDTLPSQYEYFAAMGQRV
notes: wild type, purified recombinant from E. coli; dimer in crystal
Work on B1 yielded a Km [1] of 241 ± 32 µM, a kcat [1] of 0.0085 ± 0.000333 s⁻¹ and a kcat/Km [1] of 35 ± 5 M⁻¹ s⁻¹. It also gave a Km [2] of 1075 ± 154 µM, a kcat [2] of 0.0202 ± 0.000667 s⁻¹ and a kcat/Km [2] of 18.3 ± 2.83 M⁻¹ s⁻¹. The Km [3] was 0.8 ± 0.1 µM, the kcat [3] was 0.0108 ± 0.000333 s⁻¹ and the kcat/Km [3] was 13700 ± 1580 M⁻¹ s⁻¹.
